B1: RING finger protein 11 (Homo sapiens), Q9Y3C5 (parent)
chain: MGNCLKSPTSDDISLLHESQSDRASFGEGTEPDQEPPPPYQEQVPVPVYHPTPSQTRLATQLTEEEQIRIAQRIGLIQHLPKGVYDPGRDGSEKKIRECVICMMDFVYGDPIRFLPCMHIYHLDCIDDWLMRSFTCPSCMEPVDAALLSSYETN

Variants of: B1
Conditions: with itch_human ITCH

effect of a mutation on the interaction	Variant
disrupting interaction	Y40A

Variants of: B1
Conditions: with nedd4_human NEDD4, P46934
nedd4_human NEDD4, P46934, sequence (P46934 whole entry): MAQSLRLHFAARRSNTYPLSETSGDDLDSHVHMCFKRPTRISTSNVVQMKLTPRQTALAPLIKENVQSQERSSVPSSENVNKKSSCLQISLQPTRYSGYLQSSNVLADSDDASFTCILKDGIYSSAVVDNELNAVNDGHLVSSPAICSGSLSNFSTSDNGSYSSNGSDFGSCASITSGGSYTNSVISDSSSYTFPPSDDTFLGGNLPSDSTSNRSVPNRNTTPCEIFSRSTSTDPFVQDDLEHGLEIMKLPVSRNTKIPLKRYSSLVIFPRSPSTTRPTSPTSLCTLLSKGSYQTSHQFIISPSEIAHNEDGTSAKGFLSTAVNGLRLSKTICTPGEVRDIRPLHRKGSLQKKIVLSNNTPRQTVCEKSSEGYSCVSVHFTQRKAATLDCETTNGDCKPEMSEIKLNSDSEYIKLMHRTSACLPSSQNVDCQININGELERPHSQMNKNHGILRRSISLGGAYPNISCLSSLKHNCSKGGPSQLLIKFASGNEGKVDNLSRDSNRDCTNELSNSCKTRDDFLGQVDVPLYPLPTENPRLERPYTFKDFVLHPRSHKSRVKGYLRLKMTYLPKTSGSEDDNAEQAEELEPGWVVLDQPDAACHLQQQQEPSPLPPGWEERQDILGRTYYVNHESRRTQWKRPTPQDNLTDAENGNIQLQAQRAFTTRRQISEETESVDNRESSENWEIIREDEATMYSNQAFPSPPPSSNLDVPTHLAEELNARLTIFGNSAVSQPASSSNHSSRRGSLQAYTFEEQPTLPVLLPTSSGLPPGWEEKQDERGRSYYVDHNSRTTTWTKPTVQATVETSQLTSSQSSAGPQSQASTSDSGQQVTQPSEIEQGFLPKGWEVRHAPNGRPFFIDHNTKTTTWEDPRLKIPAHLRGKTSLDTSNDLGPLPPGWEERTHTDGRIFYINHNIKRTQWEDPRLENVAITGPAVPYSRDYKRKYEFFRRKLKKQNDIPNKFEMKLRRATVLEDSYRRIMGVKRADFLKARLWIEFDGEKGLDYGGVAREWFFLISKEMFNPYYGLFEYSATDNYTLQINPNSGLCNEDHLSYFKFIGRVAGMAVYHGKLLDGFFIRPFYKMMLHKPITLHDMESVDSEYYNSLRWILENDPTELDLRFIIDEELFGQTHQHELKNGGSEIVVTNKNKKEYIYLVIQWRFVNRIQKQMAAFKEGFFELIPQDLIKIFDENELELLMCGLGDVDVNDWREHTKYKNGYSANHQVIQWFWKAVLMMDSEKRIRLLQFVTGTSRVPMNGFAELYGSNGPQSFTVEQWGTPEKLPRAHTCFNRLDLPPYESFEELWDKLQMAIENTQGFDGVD

effect of a mutation on the interaction	Variant
disrupting interaction	Y40A

Variants of: B1
Conditions: with smuf2_human SMURF2, Q9HAU4
smuf2_human SMURF2, Q9HAU4, sequence (Q9HAU4 whole entry): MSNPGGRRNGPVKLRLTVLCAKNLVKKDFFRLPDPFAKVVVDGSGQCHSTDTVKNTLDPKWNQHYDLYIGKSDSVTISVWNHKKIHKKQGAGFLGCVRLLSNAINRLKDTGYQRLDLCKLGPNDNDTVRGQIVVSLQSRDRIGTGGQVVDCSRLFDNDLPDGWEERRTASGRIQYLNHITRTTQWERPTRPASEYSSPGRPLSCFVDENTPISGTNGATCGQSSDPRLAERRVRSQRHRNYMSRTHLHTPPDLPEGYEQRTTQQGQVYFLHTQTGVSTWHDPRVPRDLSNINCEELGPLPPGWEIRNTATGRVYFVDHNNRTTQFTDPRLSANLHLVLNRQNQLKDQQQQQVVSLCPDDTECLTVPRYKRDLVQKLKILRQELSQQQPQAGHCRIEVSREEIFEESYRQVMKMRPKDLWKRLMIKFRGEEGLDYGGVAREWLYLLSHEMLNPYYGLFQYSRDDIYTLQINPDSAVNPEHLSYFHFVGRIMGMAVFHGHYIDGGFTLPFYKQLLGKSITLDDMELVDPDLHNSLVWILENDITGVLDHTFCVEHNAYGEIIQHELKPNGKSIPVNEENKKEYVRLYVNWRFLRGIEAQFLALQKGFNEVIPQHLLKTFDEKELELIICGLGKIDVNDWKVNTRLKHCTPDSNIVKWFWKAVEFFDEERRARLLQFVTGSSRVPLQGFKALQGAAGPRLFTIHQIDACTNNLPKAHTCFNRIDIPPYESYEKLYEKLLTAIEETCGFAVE

effect of a mutation on the interaction	Variant
disrupting interaction	Y40A
